Twelve substances from paper doi:10.1101/2025.08.25.672233 can be followed below.

The test addresses soluble mouse MXRA8-Fc (UniProt Q9DBV4). The following applies: read off a plot; for other: 1/IC50: mean of three biological replicates, parent: est. 2.6; for screen value: parent: est. 0.
UniProt Q9DBV4, sequence (Q9DBV4 22-336): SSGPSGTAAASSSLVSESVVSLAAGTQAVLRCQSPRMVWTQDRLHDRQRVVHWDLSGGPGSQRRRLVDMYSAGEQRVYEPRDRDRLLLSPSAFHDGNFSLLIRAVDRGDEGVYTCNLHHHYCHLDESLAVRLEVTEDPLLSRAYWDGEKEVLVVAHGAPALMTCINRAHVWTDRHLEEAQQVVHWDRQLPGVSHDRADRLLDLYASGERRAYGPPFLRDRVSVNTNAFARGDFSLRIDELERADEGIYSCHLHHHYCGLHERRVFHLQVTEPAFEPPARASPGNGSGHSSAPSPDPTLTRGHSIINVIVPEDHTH

On to “CHIKV envelope proteins (E3-E2-6K-E1) from the 181/25 strain, unmutated, on pseudovirus E1:D158R”, for which the other: 1/IC50 was determined as 15 and the screen value turned out to be 1.9.

For the substance “CHIKV envelope proteins (E3-E2-6K-E1) from the 181/25 strain, unmutated, on pseudovirus E1:K132N”, the other: 1/IC50 amounted to 0.3 and the screen value is -2.6.

In the case of “CHIKV envelope proteins (E3-E2-6K-E1) from the 181/25 strain, unmutated, on pseudovirus E1:K157C”, the other: 1/IC50 was 0.71 and the screen value is -1.7.

For the substance “CHIKV envelope proteins (E3-E2-6K-E1) from the 181/25 strain, unmutated, on pseudovirus E2:A157S”, the other: 1/IC50 amounted to 9.4 and the screen value was 0.85.

Take “CHIKV envelope proteins (E3-E2-6K-E1) from the 181/25 strain, unmutated, on pseudovirus E2:E24Y”: the other: 1/IC50 was determined as 1.1 and the screen value came to 1.9.

Turning to “CHIKV envelope proteins (E3-E2-6K-E1) from the 181/25 strain, unmutated, on pseudovirus E2:H18A”, the other: 1/IC50 came out at 3.2 and the screen value turned out to be 1.6.

On to “CHIKV envelope proteins (E3-E2-6K-E1) from the 181/25 strain, unmutated, on pseudovirus E2:I121E”, for which the other: 1/IC50 was found to be 0.05 and the screen value was -3.1.

With “CHIKV envelope proteins (E3-E2-6K-E1) from the 181/25 strain, unmutated, on pseudovirus E2:K120D”, the other: 1/IC50 was 0.17 and the screen value is -2.5.

As to “CHIKV envelope proteins (E3-E2-6K-E1) from the 181/25 strain, unmutated, on pseudovirus E2:K189Y”, the other: 1/IC50 turned out to be 140 and the screen value was determined as 2.4.

Regarding “CHIKV envelope proteins (E3-E2-6K-E1) from the 181/25 strain, unmutated, on pseudovirus E2:Q158T”, the other: 1/IC50 is 2.1 and the screen value is -0.15.

Turning to “CHIKV envelope proteins (E3-E2-6K-E1) from the 181/25 strain, unmutated, on pseudovirus E2:R119K”, the other: 1/IC50 was found to be 0.05 and the screen value is -3.5.

For “CHIKV envelope proteins (E3-E2-6K-E1) from the 181/25 strain, unmutated, on pseudovirus E2:R178S”, the other: 1/IC50 came out at 1 and the screen value was -2.3.
